Laboratory results published in US20260258115A1 (MAPP BIOPHARMACEUTICAL, published 2026).

B1: ADI-22768 (antibody, V domains shown)
VH: EVQLVESGGGLVQPGGSLRLSCAASGFTFSSYEMNWVRQAPGKGLEWVSYISSSGSTIYYADSVKGRFTISRDNAKNSLYLQMNSLRAEDTAVYYCAKSYIYDSSGYYLYYFDYWGQGTLVTVSS
VL: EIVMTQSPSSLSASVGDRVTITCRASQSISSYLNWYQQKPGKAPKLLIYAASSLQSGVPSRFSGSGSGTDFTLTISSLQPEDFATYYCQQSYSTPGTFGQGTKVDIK
notes: full-length IgG
B2: ADI-41536 (antibody, V domains shown)
VH: EVQLVESGAGLLKPSETLSLTCVVYGGSFSGYYWSWIRQPPGKGLEWVGDINHSTTTNYNPSLESRITISIDTSKNQFSLNLSSVTAADSAVYYCARGPKECTSSSCDRFGVDYFYYGMDVWGRGTTVTVSS
VL: QSVLTQPPSVSGAPGQRVTISCTGSSANIGAGYDVHWYQQFPGTAPKLLIFGNSNRPSGVPDRFSGSKSGTSASLAITGLQAEDEADYYCQSYDGTLGGWVFGGGTQLTVL
notes: also called Ab 808; Antibody Number 808
B3: ADI-41543 (antibody, V domains shown)
VH: QVQLVQSGAEVKKPGASVRVSCKASGYTLTGYYIHWLRQAPGQGLEWVGRINPNTGETSYSQKFQGRVIMTRDTSVSTAYVDLSRLRSRDTAVYFCARSDVMITVTAEGDFSYYYYRFDVWGQGTTVTVSS
VL: DIVMTQTPLSLPVTPGEPASISCRSSQSLLHSNGHNYLDWYLQKPGQSPQLLIYLGSIRASGVSDRFSGSGSGTDFTLKISRVEAEDVGIYYCMQALQTPHFGGGTKVEIK
B4: ADI-41537 (antibody, V domains shown)
VH: EVQLLESGGGLVQPGGSLRLSCAASEFTFSRYPMSWVRQAPGKGLEWVSGISVSGDSTYYADSVKGRLTISRDNSKNTLYLQMNSLRAEDTAVYYCAIDHYDTSGYYGMDVWGQGTTVTVSS
VL: DIRLTQSPLSLPVTPGEPASISCRSSRSLLRSNGYNYLDWYLQKPGQSPQLLIYLGSNRASGVPDRFSGSGSGTDFTLKISRVEAEDVGVYYCMQALQSSYTFGQGTKLEIK
B5: ADI-22775 (antibody, V domains shown)
VH: EVQLLESGGGVVQPGRSLRLSCAASGFTFSDYGMHWVRQAPGKGLEWVAVIWYDGSYKYYADSVKGRFTISRDNSKNTLFLQMNSLRAEDTAVYYCARESLQTHDAFDIWGQGTMVTVSS
VL: DIQMTQSPSSLSASVGDRVTITCRASQGISNSLAWYQQKPGKAPKLLLYAASRLESGVPSRFSGSGSGTDYTLTINSLQPEDFATYFCQQYYSTLTWTFGQGTKVDIK
notes: full-length IgG
B6: ADI-41549 (antibody, V domains shown)
VH: EVQLLESGGGVVQPGGSLRLSCAASGFTFSGYGMHWVRQAPGKGLEWVAFIQYNGSNKYYADSVKGRFTISRDNSKNTLYVQLNSLRAEDTAVYYCATDILVVPAATPLISYYFGMDVWGQGTTVTVSS
VL: QSALTQPASVSGSPGQSITISCTGTSSDVGGYNYVSWYQQYPGKAPKLMIYEVTNRPSGVSNRFSGSKSGNTASLTISGLQAEDEADYYCCSYTSTNTRVFGTGTKVTVL
notes: also called Ab 821; Antibody Number 821
B7: ADI-14382 (antibody, V domains shown)
VH: EVQLLESGGGVVQPGRSLRLSCAASGFTFSAYGFHWVRQAPGKGLEWVAVIWFDGNNKYYADSMKGRFIISRDNSKNTLYLQMNSLRAEDTAVYYCARDPKETGEFDYWGQGTLVTVSS
VL: QSALTQPASVSGSPGQSITISCTGTISDVGRYNYVSWYQQHPGKAPKLMIYDVTNRPSGVSNRFSGSKSGNTASLTISGLQAEDEAVYYCCSYTISSTYVFGTGTKLTVL
notes: full-length IgG; also called Ab 50
B8: ADI-41547 (antibody, V domains shown)
VH: QVQLVQSGAEVKKPGSSVKVSCKASGGSFSSNTINWVRQAPGQGLEWMGGIIPVFETPNYAQKFQGRVSFTADESTRTAYMELSSLRSEDTAVYFCARQGMSYYDTNGNYYVGWFDTWGQGTLVTVSS
VL: EIVLTQSPGTLSLSPGERATLSCRASQSLNNNYLAWYQRKPGQAPRLLIYGAGAFSRATGIPDRFSGSGSGTDFTLTISRLEPEDFALYYCQQYGSSPLTFGQGTRLEIK
notes: also called Ab 819; Antibody Number 819
B9: ADI-24818 (antibody, V domains shown)
VH: not shown
VL: QPVLTQPASVSGSPGQSITISCTGTSSDVGGYNYVSWYQQHPGKAPKLMIYDVSNRPSGVSNRFSGSKSGNTASLTISGLQAEDEADYYCSSYTSSSTLVFGGGTQLTVL
notes: full-length IgG; also called Ab 380
B10: ADI-41538 (antibody, V domains shown)
VH: EVQLVESGGGLVKPGGSLRLSCAASGFTLSTYGVNWVRQAPGKGLEWVSSISSSGNNIHYADSVKGRFTVFRDNAKHSMYLQMNSLRAEDTAVYYCARSLDYSNYYYYYGLDVWGQGTTVTVSS
VL: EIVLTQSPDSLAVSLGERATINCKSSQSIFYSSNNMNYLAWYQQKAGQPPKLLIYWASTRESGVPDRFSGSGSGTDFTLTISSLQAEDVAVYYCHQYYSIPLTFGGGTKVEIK
notes: also called Ab 810; Antibody Number 810
B11: ADI-41535 (antibody, V domains shown)
VH: QVTLKESGPALVKPTQTLTLTCTFSGFSLSTSRMCVSWIRQSPGKALEWLARIDWDDDKFFSTSLKTRLTISKDTSRNQVVLTMTNMDPVDTATYYCARTTVYASGGYYLYYFDYWGQGTLVTVSS
VL: DIQLTQSPSSLPASVGDRVTITCRASQRIASYLNWYQQKPGKAPKVLIYAASNLQSGVPSRFSGSGSGTDFTLTINSLQPEDFATYYCQQSYTTPWTFGQGTKVEIK
B12: ADI-41541 (antibody, V domains shown)
VH: QITLKESGPTLVKPTQTLTLTCTFSGFSLSSSGVGVGWIRQPPGKALEWLALIYWDDDKRYSPSLKSRLTITKDTSKNQVVLTMTNMDPVDTATYYCAHRGPYYYDMSGYYYEAFDIWGQGTTVTVSS
VL: SYELMQPPSVSVAPGQTARITCGGNNIGSKGVHWYQQKPGQAPVLVVYDDNDRPSGIPERFSGSNSGNTATLTISRVEAGDEADYYCQVWDSSSDHHYVFGTGTKVTVL
notes: also called Ab 813; Antibody Number 813
B13: ADI-24808 (antibody, V domains shown)
VH: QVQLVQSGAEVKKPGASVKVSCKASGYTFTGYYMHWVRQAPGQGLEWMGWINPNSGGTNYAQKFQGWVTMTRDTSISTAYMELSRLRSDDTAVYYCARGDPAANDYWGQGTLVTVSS
VL: QPVLTQPPSASGSPGQSVTISCTGTSSDVGGYNYVSWYQQHPGKAPKLMIYEVSKRPSGVPDRFSGSKSGNTASLTVSGLQAEDEADYYCSSYAGSNNVVFGGGTKLTVL
notes: full-length IgG
B14: ADI-24851 (antibody, V domains shown)
VH: not shown
VL: QSVLIQPPSASGSPGQSVTISCTGTSSDVGGYNYVSWYQQHPGKAPKLMIYEVSKRPSGVPDRFSGSKSGNTASLTVSGLQAEDEADYYCSSYAGSNNVVFGGGTKLTVL
notes: full-length IgG
B15: ADI-41548 (antibody, V domains shown)
VH: QVQLQQWGPGLVKPSETLSLTCTVSGASITSHYWSWLRQPAGKGLEWIGRFYPSGTTEKTPSLKSRVTLSVDTSKNHFSLKLTSVTAADTAVYYCARDSYDDIAGSYEYYFADWGQGTLVTVSS
VL: EIVLTQSPATLSVSPGERATLSCRASQSVSSNLAWYQQKPGQAPRLLIYDISTRATGVPARFSGSGSGTEFTLTITSLQSEDFTVYYCQQYNNWPPTFGQGTKLEIK
notes: also called Ab 820; Antibody Number 820
B16: ADI-19485 (antibody, V domains shown)
VH: QVQLQESGPGLVKPSQTLSLSCTVSGGSISSTNYYWTWIRQHPGKGLEWIGFIYNRGSTYYNPSLTSRVTISVDTSKNQFSLKLTSVTAADTAVYYCARAPYYYDRNGYYTAFDIWGQGTTVTVSS
VL: EIVLTQSPATLSVSPGERATLSCRASQSVSSNLAWYQQKPGQAPRLLIYDASTRATDIPARFSGGGSGTEFTLTISSLQSEDFAVYYCQQYNNWPRTFGLGTKVDIK
notes: full-length IgG
B17: ADI-41540 (antibody, V domains shown)
VH: QVQLQQWGAGLLKPSETLSLTCGVYGGSFTGYQWSWIRQSPGKGLEWIGDIDHGGNTNYRPSLKSRIITSVNMSKKEFSLKLASVTAADTAVYYCARGVGFLEFSGGPTGRRRNWFDSWGQGTLVTVSS
VL: DIQLTQSPGTLSLSPGEGATLSCRASQSVGGSYLAWYQQRPGQAPRLLIYGASNRAADSPDRFSGSGSATDFTLTISRLEPEDFAVYYCQQYGSSPWTFGQGTKVEIK
B18: ADI-22779 (antibody, V domains shown)
VH: QVQLQQWGAGLLKPSETLSLTCAVYGGSFSDYSWTWIRQPPGKGLEWIGEISHTGITNYNPSLKSRVNISVDTSKNQFSLKLSSVTAADTAVYYCARADAYDSSGYYVYYFDYWGQGTLVTVSS
VL: DIQVTQSPPSLSASVGDRVTITCRASQTIASYLNWYHQKPGKAPELLIYAASSLQSGVPSRFSGSGSGTAFTLTISSLQPEDFATYYCQQSYSAPPSFGQGTKVEIK
notes: full-length IgG
B19: ADI-41545 (antibody, V domains shown)
VH: QVQLVESGPGLVKPSETLSLTCTVSGGSISRYYWSWIRQSPGKGLEWIGYIYHSVITNYNPSLKSRVTISIDMSKNQFSLKLSSVTAADTAVYYCASRPLINGYGPDNYFDYWGQGTLVTVSS
VL: SYVLTQPPSVSVAPGQTARITCGGNNIGSKSVHWYQRKPGQAPVLVVYDDSDRPSGIPERFSGSNSGNTATLTIIRVEAGDEADYYCQVWDNSSDHPVFGGGTKLTVL
notes: also called Ab 817; Antibody Number 817
B20: ADI-41539 (antibody, V domains shown)
VH: QVQLVESGAEVKKPGASVKVSCKASGYNFIDYGISWVRQAPGQGLEWVGWISAYNGNTNYAQKLQGRVTMTTDTSTNTAYMELRSLRSDDTALYYCARDSSSLHPTYYYYYPMDVWGQGTTVTVSS
VL: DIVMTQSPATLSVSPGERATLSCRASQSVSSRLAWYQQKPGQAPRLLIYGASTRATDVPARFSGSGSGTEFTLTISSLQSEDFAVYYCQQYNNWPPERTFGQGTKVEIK
B21: ADI-41551 (antibody, V domains shown)
VH: QVQLQESGGGVVQPGGSLRLSCAASGFTFSRHWMHWVRQVPGKGLVWVSRINSDESTIDYADSVKGRFTISRDNAKNTLYLQMNSLRAEDTAVYYCVRDMVAVPGTTGGDYWGQGTLVTVSS
VL: SYELTQPPSVSVSPGQTADITCSGDKLGDKYACWYQQRAGQSPILVLYQDTRRPSGIPERFSGSNSGDTATLTISGTQAMDEADYYCQAWDSSTAWVFGGGTKLTVL
notes: also called Ab 823; Antibody Number 823

Columns and labels:
[1] = target: T1, RSV prefusion F (preF), subtype B (respiratory syncytial virus subtype B); test: BLI, IgG
T1 construct: also called Prefusion subtype B

[2] = target: T2, RSV postfusion F (postF), subtype A (respiratory syncytial virus subtype A, UniProt P03420 26-513); test: BLI, IgG
T2 construct: also called Postfusion subtype A; F deltaFP

RSV F on RSV-A2 virus = RSV F on RSV-A2 virus (Respiratory Syncytial Virus (RSV-A2), UniProt P03420 26-574); test: cell-based or functional assay
[3] = target: RSV postfusion F (postF), F ΔFP (Respiratory Syncytial Virus, UniProt P03420 26-513); test: BLI, IgG on anti-human IgG sensor, 100 nM antigen, 1:1 fit
[4] = target: RSV prefusion F (preF), DS-Cav1 (Respiratory Syncytial Virus, UniProt P03420 26-513); test: as above

Row | Binder | Kd [1] [nM] | Kd [2] [nM] | Neutralization IC50 (RSV subtype A) (RSV F on RSV-A2 virus) [µg/mL] | Kd [3] [nM] | Kd [4] [nM]
1 | B1 | 4.57 | 3.41 |  |  | 
2 | B2 |  |  | > 25 | 0.476 | 3.05
3 | B3 |  |  | > 25 | 0.796 | 2.9
4 | B4 |  |  | > 25 | 0.488 | 2.58
5 | B5 |  | 30 |  |  | 
6 | B6 |  |  | > 25 | 1.56 | 0.408
7 | B7 |  | 0.846 |  |  | 
8 | B8 |  |  | 0.05 | 1.08 | 3.19
9 | B9 |  | 6.47 |  |  | 
10 | B10 |  |  | > 25 | 0.587 | 3.44
11 | B11 |  |  | > 25 | 0.476 | 1.93
12 | B12 |  |  | > 25 | 0.776 | 2.47
13 | B13 |  | 10.8 |  |  | 
14 | B14 |  | 20.9 |  |  | 
15 | B15 |  |  | > 25 | 1.45 | 2.56
16 | B16 |  | 0.251 |  |  | 
17 | B17 |  |  | > 25 | 0.686 | 3.54
18 | B18 |  | 6.2 |  |  | 
19 | B19 |  |  | > 25 | 0.825 | 1.36
20 | B20 |  |  | 0.18 | 0.615 | 3.38
21 | B21 |  |  | > 25 | 23.8 | 13
